# Source: publication PMC9550759
# Biological target: high-affinity binding sites and low-affinity sites for VEGF165 on the SK-MEL-28 cell line (human (endogenous in SK-MEL-28))
# Assay: radioligand binding; radio-receptor assay with [125I]-labeled VEGF165 on SK-MEL-28 cells; two classes of sites; data not shown
substance,measurement,value
Recombinant Human VEGF165 (from UniProt P15692-4 1-191) (ligand),"KD, high-affinity sites",0.13 nM
same,"KD, low-affinity sites",4.1 nM
